Patent US20150284436A1 (published 2015)
Where a chain is given by its changes, count along the chain named. In names and notes the source's numbering stands.

T1: TRX(C35A), tag-free (human, UniProt P10599 1-105)
T1 construct: Human TRX with alanine for cysteine at position 35; Co-expressed tag-free with T-TXNIP mutants or N-TXNIP; also called modified TRX protein
T1 chain: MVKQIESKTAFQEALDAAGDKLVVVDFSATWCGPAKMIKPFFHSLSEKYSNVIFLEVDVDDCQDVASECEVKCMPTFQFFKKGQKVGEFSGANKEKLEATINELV

T2: HA-tagged TXNIP (human, UniProt Q9H3M7 1-391)
T2 construct: Expressed in HEK 293T cells
T2 sequence: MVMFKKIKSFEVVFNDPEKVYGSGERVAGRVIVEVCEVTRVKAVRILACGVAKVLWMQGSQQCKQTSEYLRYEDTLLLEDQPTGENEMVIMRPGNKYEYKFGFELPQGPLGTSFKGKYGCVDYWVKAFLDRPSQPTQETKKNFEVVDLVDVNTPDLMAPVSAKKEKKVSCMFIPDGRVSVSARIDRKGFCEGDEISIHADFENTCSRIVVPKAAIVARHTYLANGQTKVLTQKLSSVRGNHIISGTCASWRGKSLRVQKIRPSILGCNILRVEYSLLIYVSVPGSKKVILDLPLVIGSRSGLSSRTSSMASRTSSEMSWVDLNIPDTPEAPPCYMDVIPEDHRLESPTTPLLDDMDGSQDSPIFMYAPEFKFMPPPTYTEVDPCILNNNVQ

T3: T-TXNIP (TXNIP residues 3-317) (human, UniProt Q9H3M7 3-317)
T3 construct: In E. coli it was expressed with an N-terminal hexahistidine-tag that was removed by rTEV protease; also called native T-TXNIP; T-TXNIP(3-317)
T3 sequence: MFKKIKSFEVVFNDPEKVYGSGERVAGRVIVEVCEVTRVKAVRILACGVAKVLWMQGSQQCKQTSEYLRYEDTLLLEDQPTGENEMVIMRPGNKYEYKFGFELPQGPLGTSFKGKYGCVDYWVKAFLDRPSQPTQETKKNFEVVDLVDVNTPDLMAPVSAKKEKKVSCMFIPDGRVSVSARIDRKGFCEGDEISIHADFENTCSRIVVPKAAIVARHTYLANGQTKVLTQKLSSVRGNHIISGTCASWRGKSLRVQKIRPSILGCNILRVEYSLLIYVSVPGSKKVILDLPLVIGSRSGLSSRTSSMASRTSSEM

T4: TRX, wild-type, with C-terminal hexahistidine-tag (NMR sample) (human, UniProt P10599 1-105)
T4 construct: also called unlabeled, reduced TRX; wild-type TRX; not shown: C-terminal hexahistidine-tag from pET21 vector
T4 sequence: T1 chain with A35C

B1: T-TXNIP(C170S/C205S/C267S) (other)
chain: T3 sequence with C168S, C203S, C265S
notes: 1; The N-terminal hexahistidine-tag was removed by rTEV protease; also called modified TXNIP protein of COM2
B2: FLAG-tagged T-TXNIP (other)
chain: T3 sequence
notes: Expressed in HEK 293T cells
B3: T-TXNIP(C120S/C170S/C205S/C267S) (other)
chain: T3 sequence with C118S, C168S, C203S, C265S
notes: 1; The N-terminal hexahistidine-tag was removed by rTEV protease; also called T-TXNIP(C120,170,205,267S); modified TXNIP protein of COM1
B4: human TRX (thioredoxin), wild-type, tag-free (enzyme)
chain: T1 chain with A35C
notes: Expressed tag-free under the T7 promoter together with TXNIP constructs in E. coli; also called native TRX; endogenous TRX
B5: N-TXNIP (N-terminal domain of TXNIP, residues 3-156) (other)
chain: MFKKIKSFEVVFNDPEKVYGSGERVAGRVIVEVCEVTRVKAVRILACGVAKVLWMQGSQQCKQTSEYLRYEDTLLLEDQPTGENEMVIMRPGNKYEYKFGFELPQGPLGTSFKGKYGCVDYWVKAFLDRPSQPTQETKKNFEVVDLVDVNTPDL
notes: The NMR sample was 15N-labeled and its hexahistidine-tag was removed by rTEV; In the Ni-NTA co-purification it carried the N-terminal hexahistidine-tag; also called N-terminal TXNIP; ^15N-labeled N-TXNIP
B6: N-TXNIP C120S mutant (^15N-labeled) (other)
chain: B5 chain with C118S
B7: TRX C62A mutant (NMR sample) (enzyme)
chain: T1 chain with A35C, C62A
notes: not shown: C-terminal hexahistidine-tag from pET21 vector
B8: N-TXNIP C63S mutant (^15N-labeled) (other)
chain: B5 chain with C61S
B9: TRX C69A mutant (NMR sample) (enzyme)
chain: T1 chain with A35C, C69A
notes: as for B7
B10: TRX C73A mutant (NMR sample) (enzyme)
chain: T1 chain with A35C, C73A
notes: as for B7

Tests used:
[1] = molecular target: T1, TRX(C35A), tag-free; assay: co-crystal structure, X-ray, 2.7 Å
[2] = molecular target: T2, HA-tagged TXNIP; assay: anti-FLAG agarose immunoprecipitation from HEK 293T lysates (50 mM iodoacetamide), Western blot
Description: To test the in vivo interprotomer interaction between TXNIP molecules, HEK 293T cells were transfected with plasmids expressing HA-tagged-TXNIP and FLAG-tagged T-TXNIP. 24 hours later, the cells were harvested and lysed in the 50 mM iodoacetamide-containing buffer [0.5% Triton X-100, 150 mM NaCl, 10% glycerol, 1 mM NaF, 1 mM AEBSF, 2 μg/mL leupeptin, 5 μg/mL aprotinin and 20 mM HEPES (pH 7.2)]. After centrifugation at 16,000 rpm for 20 minutes, the supernatant was incubated with anti-FLAG M2 agarose (Sigma) at 4° C. for 12 hours. The immobilized proteins were collected by centrifugation and washed three times with the lysis buffer. The bound proteins were subjected to SDS-PAGE under reduced and non-reduced conditions. […] 24 hours later, the cells were harvested and lysed in the lysis buffer. After centrifugation at 16,000 g for 20 minutes, the supernatants were incubated at 4° C. for 12 hours with monoclonal anti-FLAG M2 agarose beads (Sigma) for immunoprecipitation, or with glutathione-conjugated sepharose beads (GE Healthcare) for pull-down assay. The immobilized proteins were collected by centrifugation and washed three times with lysis buffer. Bound proteins or WCLs were eluted by boiling in SDS sample buffer. […]

[3] = molecular target: T1, TRX(C35A), tag-free; assay: size-exclusion chromatography
Description: A Superdex™ 200 10/300 GL gel filtration column (GE Healthcare) installed on an Acta purifier FPLC system (GE Healthcare) was equilibrated with 50 mM Tris-HCl (pH 8.0), 500 mM NaCl, and 10% glycerol at a flow rate of 0.4 ml/min at room temperature. Purified TRX-T-TXNIP and its mutants were injected onto the column. Ovalbumin was used as a molecular weight standard.
The structures of COM1 and COM2 are essentially identical, each contains two heterodimeric complexes of TRX and T-TXNIP in an asymmetric unit, with a large interface between the two T-TXNIP molecules (FIGS. 5A and B). […] Thus, the interfaces between the T-TXNIP molecules in the crystal structures merely constitute large crystal contacts.

[4] = molecular target: B4; assay: GST pull-down from transfected HEK 293T lysates, immunoblot
[5] = molecular target: T3, T-TXNIP (TXNIP residues 3-317); assay: as above
[6] = molecular target: T4, TRX, wild-type, with C-terminal …; assay: 1H-15N HSQC NMR titration of 15N-labeled N-TXNIP
Description: (§1) NMR interaction experiments were carried out by recording ¹H-¹⁵N NMR HSQC spectra of ¹⁵N-labeled N-TXNIP upon addition of unlabeled TRX or its mutant, which was reduced with 5 mM DTT and dialyzed against 50 mM potassium phosphate (pH 6.6) prior to the interaction study to remove excess DTT.
(§2) The ¹H-¹⁵N HSQC spectra of all proteins were measured on a Bruker 900 MHz NMR spectrometer at the Korea Basic Science Institute (Ochang, Korea). The NMR measurements were performed using 0.3 mM ¹⁵N-labeled protein in 50 mM potassium phosphate (pH 6.6) containing 10% D₂O at 25° C. All NMR spectra were processed with Topspin 2.1 and analyzed with the program SPARKY 3.1.
To evaluate the involvement of N-TXNIP in the interaction of TXNIP with TRX, an NMR-titration experiment was performed by recording a series of ¹H-¹⁵N heteronuclear single quantum coherence (HSQC) spectra of ¹⁵N-labeled N-TXNIP after addition of unlabeled, reduced TRX.

[7] = molecular target: T4, TRX, wild-type, with C-terminal …; assay: 1H-15N HSQC NMR
Description: as §1, §2
(§3) Further, TRX muteins were added and ¹H-¹⁵N HSQC spectra of ¹⁵N-labeled N-TXNIP were monitored to examine interaction between N-TXNIP and TRX. […] In contrast, C62A, C69A, and C73A mutants caused a chemical shift similar to the wild-type TRX (FIG. 12).

[8] = molecular target: B5; assay: 1H-15N HSQC NMR of 15N-labeled N-TXNIP
Description: as §1, §2, §3

Binder: B1
binding result [1]: binds

Binder: B2
binding result [2]: binds

Binder: B3
binding result [3]: binds
binding result [4]: binds

Binder: B4
binding result [5]: binds

Binder: B5
binding result [6]: binds

Binder: B6
binding result [7]: no binding

Binder: B7
binding result [8]: binds

Binder: B8
binding result [7]: no binding

Binder: B9
binding result [8]: binds

Binder: B10
binding result [8]: binds
